Residue numbers refer to the chain shown, from its start. Blank lines part the entries; values can stand above or below the binder they belong to.
Target: T1, IL1RL2 over-expressed on Expi293 cells (UniProt Q9HB29 20-575, limits assumed)
T1 construct: whole, on cells; Target of the flow cytometry assay; MFI ratio is over-expressing cells over parent cells
T1 sequence (looked up): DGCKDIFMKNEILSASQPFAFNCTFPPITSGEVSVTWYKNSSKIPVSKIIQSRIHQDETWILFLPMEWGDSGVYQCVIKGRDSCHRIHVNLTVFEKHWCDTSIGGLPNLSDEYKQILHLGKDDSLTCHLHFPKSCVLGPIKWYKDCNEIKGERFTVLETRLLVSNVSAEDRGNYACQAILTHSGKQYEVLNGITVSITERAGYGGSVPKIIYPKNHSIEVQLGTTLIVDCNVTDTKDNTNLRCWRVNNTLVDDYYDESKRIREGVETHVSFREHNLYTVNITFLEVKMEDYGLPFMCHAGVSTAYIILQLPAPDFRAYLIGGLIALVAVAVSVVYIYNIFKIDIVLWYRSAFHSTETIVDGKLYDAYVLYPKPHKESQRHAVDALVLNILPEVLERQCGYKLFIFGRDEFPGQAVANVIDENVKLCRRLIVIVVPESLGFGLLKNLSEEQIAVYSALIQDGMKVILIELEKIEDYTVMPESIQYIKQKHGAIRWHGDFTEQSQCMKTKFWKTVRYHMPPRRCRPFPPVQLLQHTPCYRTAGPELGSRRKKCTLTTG
Assay: flow cytometry, over-expressing Expi293 vs parent cells, 100 nM antibody;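 note: ratio is mean fluorescence intensity on over-expressing Expi293 cells divided by that measured on parental Expi293 cells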
Procedure: All incubations and washes were in buffer containing PBS+1% BSA. MFI Ratio is defined by the mean fluorescence intensity (MFI) of the cytokine over-expressing Expi293 cell over the Expi293 parent cell. […] EC50 was calculated in GraphPad Prism.

100 nM FACS (MFI Ratio): 3.08
B1: IL1RL2-167 (antibody, V domains shown)
VH: EVQLLESGGGLVQPGGSLRLSCAASGFTFSNYGVSWVRQAPGKGLEWVSGITRSGSTNYRDSVKGRFTISRDNSKNTLYLQMNSLRAEDTAVYYCAKGRRIFDYWGQGTLVTVSS
VL: DIQMTQSPSSLSASVGDRVTITCSGDKLGHTYTSWYQQKPGKAPKLLIYGKKNRPSGVPSRFSGSGSGTDFTLTISSLQPEDFATYYCQQSYSTPGITFGQGTKVEIK
notes: IgG2

100 nM FACS (MFI Ratio): 3.07
B2: IL1RL2-295 (antibody, V domains shown)
VH: EVQLLESGGGLVQPGGSLRLSCAASGFSFTTYAMSWVRQAPGKGLEWVSGISGGGGSTYYADSVKGRFTISRDNSKNTLYLQMNSLRAEDTAVYYCAKLVLSNRGGVDYWGQGTLVTVSS
VL: DIQMTQSPSSLSASVGDRVTITCRASQSIRSHLNWYQQKPGKAPKLLIYRASTLQTGVPSRFSGSGSGTDFTLTISSLQPEDFATYYCQQSYSILPVTFGGGTKVEIK
notes: IgG2

100 nM FACS (MFI Ratio): 3.98
B3: IL1RL2-283 (antibody, V domains shown)
VH: EVQLLESGGGLVQPGGSLRLSCAASGFAFRSYAMSWVRQAPGKGLEWVSAITGSGTSTYYADSVKGRFTISRDNSKNTLYLQMNSLRAEDTAVYYCARDILWNYRVADYWGQGTLVTVSS
VL: DIQMTQSPSSLSASVGDRVTITCRASLSISRYLNWYQQKPGKAPKLLIYTASSLHSGVPSRFSGSGSGTDFTLTISSLQPEDFATYYCQQSYRTPPWTFGGGTKVEIK
notes: IgG2

100 nM FACS (MFI Ratio): 8.4
B4: IL1RL2-290 (antibody, V domains shown)
VH: B3 VH with R105H
VL: B3 VL
notes: IgG2

100 nM FACS (MFI Ratio): 37
B5: IL1RL2-178 (antibody, V domains shown)
VH: EVQLLESEGGLVQPGGSLRLSCAASGFTFSGYDMQWVRQAPGKGLEWVSSISSTGFKTYYADSVKGRFTISRDNSKNTLYLQMNSLRAEDTAVYYCAKAGPPFAGSRGNSFDYWGQGTLVTVSS
VL: DIQMTQSPSSLSASVGDRVTITCSGDNLRGYYASWYQQKPGKAPKLLIYGTSDLQSGVPSRFSGSGSGTDFTLTISSLQPEDFATYYCYSRDRSGNHLGMFGQGTKVEIK
notes: IgG2

100 nM FACS (MFI Ratio): 3.19
B6: IL1RL2-184 (antibody, V domains shown)
VH: EVQLLESGGGLVQPGGSLRLSCAASGFTFSDYDMSWVRQAPGKGLEWVSSISPSGGWTEYADSVKGRFTISRDNSKNTLYLQMNSLRAEDTAVYYCARHDYSNYPYFDYWGQGTLVTVSS
VL: DIQMTQSPSSLSASVGDRVTITCRASQTIGDYLNWYQQKPGKAPKLLIYTASNLQNGVPSRFSGSGSGTDFTLTISSLQPEDFATYYCQQGFSNPWTFGQGTKVEIK
notes: IgG2

100 nM FACS (MFI Ratio): 0.72
B7: IL1RL2-176 (antibody, V domains shown)
VH: EVQLLESGGGLVQPGGSLRLSCAASGFTFSNSYISWVRQAPGKGLEWVSSIRGSSSSTYYADSVKGRFTISRDNSKNTLYLQMNSLRAEDTAVYYCARSYGGGFDYWGQGTLVTVSS
VL: DIQMTQSPSSLSASVGDRVTITCSGDNLRGYYASWYQQKPGKAPKLLIYQNDKRPSGVPSRFSGSGSGTDFTLTISSLQPEDFATYYCFQGSHAPLTFGQGTKVEIK
notes: IgG2

100 nM FACS (MFI Ratio): 4.26
B8: IL1RL2-162 (antibody, V domains shown)
VH: EVQLLESGGGLVQPGGSLRLSCAASGFTFNHYGMGWVRQAPGKGLEWVSSIGANGAPTYYADSVKGRFTISRDNSKNTLYLQMNSLRAEDTAVYYCAKSYLSGTFDYWGQGTLVTVSS
VL: DIQMTQSPSSLSASVGDRVTITCQGGSPRSYYASWYQQKPGKAPKLLIYHTSRLQDGVPSRFSGSGSGTDFTLTISSLQPEDFATYYCQSYDKSNVVFGQGTKVEIK
notes: IgG2

100 nM FACS (MFI Ratio): 11.7
B9: IL1RL2-292 (antibody, V domains shown)
VH: EVQLLESGGGLVQPGGSLRLSCAASGLTFNNYAMSWVRQAPGKGLEWVSGISGSSGNTYYVDSVKGRFTISRDNSKNTLYLQMNSLRAEDTAVYYCARGPNHGMFDAWGQGTLVTVSS
VL: DIQMTQSPSSLSASVGDRVTITCRASQSIGYYLNWYQQKPGKAPKLLIYSATSLQSGVPSRFSGSGSGTDFTLTISSLQPEDFATYYCQHRGTFGGGTKVEIK
notes: IgG2

100 nM FACS (MFI Ratio): 3.95
B10: IL1RL2-170 (antibody, V domains shown)
VH: EVQLLESGGGLVQPGGSLRLSCAASGFTFPVYNMAWVRQAPGKGLEWVSSISGYGSTTYYADSVKGRFTISRDNSKNTLYLQMNSLRAEDTAVYYCAKSYGAFDYWGQGTLVTVSS
VL: DIQMTQSPSSLSASVGDRVTITCSASQDINKYLNWYQQKPGKAPKLLIYHTSRLQDGVPSRFSGSGSGTDFTLTISSLQPEDFATYYCQQSYTTPWTFGQGTKVEIK
notes: IgG2

100 nM FACS (MFI Ratio): 5.31
B11: IL1RL2-289 (antibody, V domains shown)
VH: EVQLLESGGGLVQPGGSLRLSCAASGFTFTKYAMSWVRQAPGKGLEWVSGISGSGGYTYYADSVKGRFTISRDNSKNTLYLQMNSLRAEDTAVYYCARGAGSPDYWGQGTLVTVSS
VL: DIQMTQSPSSLSASVGDRVTITCRASQNIRSYLNWYQQKPGKAPKLLIYATSNLQRGVPSRFSGSGSGTDFTLTISSLQPEDFATYYCQQSYRAPYIFGGGTKVEIK
notes: IgG2

100 nM FACS (MFI Ratio): 8.71
B12: IL1RL2-284 (antibody, V domains shown)
VH: EVQLLESGGGLVQPGGSLRLSCAASGFTFTSHAMSWVRQAPGKGLEWVSGISGSGANTYYADSVKGRFTISRDNSKNTLYLQMNSLRAEDTAVYYCARDGIVVVPAANHSYYYYYGMDVWGQGTLVTVSS
VL: DIQMTQSPSSLSASVGDRVTITCRASQSISVHLNWYQQKPGKAPKLLIYIASNLQSGVPSRFSGSGSGTDFTLTISSLQPEDFATYYCQQTYTTPYTFGGGTKVEIK
notes: IgG2

100 nM FACS (MFI Ratio): 10.2
B13: IL1RL2-293 (antibody, V domains shown)
VH: EVQLLESGGGLVQPGGSLRLSCAASGFTISNYAMSWVRQAPGKGLEWVSGISGSGSSTFYADSVKGRFTISRDNSKNTLYLQMNSLRAEDTAVYYCAKPDSGQWWGVDQWGQGTLVTVSS
VL: B12 VL with S30G, V31N, H32Y, L33V, I50A, Q55E, S56D, T91S, T93N, Y96L
notes: IgG2

100 nM FACS (MFI Ratio): 19.9
B14: IL1RL2-296 (antibody, V domains shown)
VH: EVQLLESGGGLVQPGGSLRLSCAASGFIFSNFAMSWVRQAPGKGLEWVSGISGSGSSTNYADSVKGRFTISRDNSKNTLYLQMNSLRAEDTAVYYCARGFWSGYYGMDVWGQGTLVTVSS
VL: B12 VL with Q27R, V31T, H32Y, I50A, N53S, L54S, T93A, Y96W
notes: IgG2

100 nM FACS (MFI Ratio): 1.02
B15: IL1RL2-181 (antibody, V domains shown)
VH: EVQLLESGGGLVQPGGSLRLSCAASGFTFGQESMYWVRQAPGKGLEWVSGITRSGSTNYRDSVKGRFTISRDNSKNTLYLQMNSLRAEDTAVYYCAKQLGEEFDYWGQGTLVTVSS
VL: DIQMTQSPSSLSASVGDRVTITCTGDKLAEKYVSWYQQKPGKAPKLLIYAKNNRPSGVPSRFSGSGSGTDFTLTISSLQPEDFATYYCQQWSSNPLTFGQGTKVEIK
notes: IgG2

100 nM FACS (MFI Ratio): 205
B16: IL1RL2-185 (antibody, V domains shown)
VH: EVQLLESGGGLVQPGGSLRLSCAASGFTFDKYLMSWVRQAPGKGLEWVSAISGRGDNTYYADSVKGRFTISRDNSKNTLYLQMNSLRAEDTAVYYCARGGDTYFDYFDYWGQGTLVTVSS
VL: DIQMTQSPSSLSASVGDRVTITCRASQSIRRFLNWYQQKPGKAPKLLIYQASSLQSGVPSRFSGSGSGTDFTLTISSLQPEDFATYYCQQSHSSPLTFGQGTKVEIK
notes: IgG2

100 nM FACS (MFI Ratio): 7.44
B17: IL1RL2-297 (antibody, V domains shown)
VH: EVQLLESGGGLVQPGGSLRLSCAASGFTFRSHAMSWVRQAPGKGLEWVSALSGSGGRTYYADSVKGRFTISRDNSKNTLYLQMNSLRAEDTAVYYCASSGAGVSDYWGQGTLVTVSS
VL: B16 VL with R30D, R31T, F32N, Q50A, S53N, S56H, H92S, S94I, Q100G
notes: IgG2

100 nM FACS (MFI Ratio): 11.7
B18: IL1RL2-301 (antibody, V domains shown)
VH: EVQLLESGGGLVQPGGSLRLSCAASGFPLSSYAMSWVRQAPGKGLEWVSLISGSGVSTYYADSVKGRFTISRDNSKNTLYLQMNSLRAEDTAVYYCARGWGAAEEWGQGTLVTVSS
VL: B12 VL with I29V, V31Y, H32Y, I50G, S52V, T91S, Y92H, T94I, G100Q
notes: IgG2

100 nM FACS (MFI Ratio): 11.2
B19: IL1RL2-173 (antibody, V domains shown)
VH: EVQLLESGGGLVQPGGSLRLSCAASGFTFSEYGMWWVRQAPGKGLEWVSEISPSGGYTYYADSVKGRFTISRDNSKNTLYLQMNSLRAEDTAVYYCAEQDVKGSSSFDYWGQGTLVTVSS
VL: DIQMTQSPSSLSASVGDRVTITCRPNQNIATYINWYQQKPGKAPKLLIYQMSHLASGVPSRFSGSGSGTDFTLTISSLQPEDFATYYCQQSYSTPSFGQGTKVEIK
notes: IgG2

From patent US20230265179A1 (TWIST BIOSCIENCE, published 2023)
